Laboratory results reported in article PMC4701444 (PLoS ONE, 2016).

How the values were obtained:
PfAMA1 [1] = details: Room temp; ref [23]; read-out: SPR Kd; cited from earlier work
Text: Table 2 Comparison of equilibrium dissociation constants (Kd) of complexes. | column: SPRKd (nM) / Room temp

ΔDII-PfAMA1 = assay: Isothermal Titration Calorimetry, ΔDII-PfAMA1; type: binding, Plasmodium falciparum; details: 25°C; ΔDII-PfAMA1 10 μM, PfRON2D3-TRX 110 μM; 20 mM Hepes pH 7.5, 150 mM NaCl; average of two experiments with standard deviation; read-out: ITC Kd
Description: (§1) Purified PfAMA1, ΔDII-PfAMA1, and PfRON2D3-TRX were dialyzed against ITC buffer (20 mM Hepes pH 7.5, 150 mM NaCl) at 4°C. All ITC experiments were carried out at 25°C on a MicroCal iTC200 instrument. The sample cell contained PfAMA1 or ΔDII-PfAMA1 (10 μM), and PfRON2D3-TRX (110 μM) was added in 17 injections of 2.2 μL each. […] Data were processed using Origin software (MicroCal) and the dissociation constants (Kd) were determined using a one binding site model.

PfAMA1 [2] = biological target: T1, PfAMA1 (Plasmodium falciparum, UniProt Q7KQK5); assay: Isothermal Titration Calorimetry, PfAMA1; type: binding; details: ITC, 25°C; which AMA1 construct not stated
T1 construct: (residues 104–438); hexa-histidine (cleaved yes); made in house; host or cells: insect cells (modified pAcGP67B vector)
T1 sequence (Q7KQK5 104-438): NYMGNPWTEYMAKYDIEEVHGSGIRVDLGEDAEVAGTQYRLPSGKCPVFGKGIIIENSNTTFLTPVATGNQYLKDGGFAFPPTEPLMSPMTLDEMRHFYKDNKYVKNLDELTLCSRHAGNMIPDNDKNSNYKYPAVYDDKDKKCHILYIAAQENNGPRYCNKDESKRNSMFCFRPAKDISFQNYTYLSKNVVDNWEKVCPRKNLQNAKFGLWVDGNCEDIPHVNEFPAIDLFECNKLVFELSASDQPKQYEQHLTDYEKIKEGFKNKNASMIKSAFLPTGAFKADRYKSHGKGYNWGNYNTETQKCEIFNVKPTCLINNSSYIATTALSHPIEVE
Description: as §1

[3] = biological target: T2, F*PfRON2sp1 (39 aa) [2021-2059], fluorescein-labeled PfRON2sp1 peptide (Plasmodium falciparum, 5-FAM (5-carboxyfluorescein) on the N-terminus; disulfide cyclized at the two cysteine residues); assay: fluorescence polarisation; anisotropy kinetics at 25°C; association: 10 nM labeled probe with 50, 100, 200 nM protein; dissociation: 10 nM preformed complex challenged with 2500 or 5000 nM unlabeled PfRON2sp1; global fit to a one-intermediate model; PBS pH 7.4, at least 0.1% BSA; details: both partners purified
T2 construct: Rhoptry Neck Protein 2 (RON2) of Plasmodium falciparum, residues 2021-2059; also called labeled peptide; labeled probe; source: synthetic peptide, bought: Kinexus (purity ≥ 95%)
T2 peptide: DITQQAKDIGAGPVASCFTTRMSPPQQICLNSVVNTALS

[4] = biological target: T2, F*PfRON2sp1 (39 aa) [2021-2059], …; assay: as above; details: both partners purified
[5] = biological target: T2, F*PfRON2sp1 (39 aa) [2021-2059], …; assay: fluorescence polarisation; anisotropy kinetics at 30°C; association: 10 nM labeled probe with 50, 100, 200 nM protein; dissociation: 10 nM preformed complex challenged with 2500 or 5000 nM unlabeled PfRON2sp1; global fit to a one-intermediate model; PBS pH 7.4, at least 0.1% BSA; details: both partners purified
[6] = biological target: T2, F*PfRON2sp1 (39 aa) [2021-2059], …; assay: fluorescence polarisation; anisotropy kinetics at 25°C; association: 10 nM labeled probe with 50, 100, 200 nM protein; dissociation: 10 nM preformed complex challenged with 2500 or 5000 nM unlabeled PfRON2sp1; global fit to a one-intermediate model; PBS pH 7.4, at least 0.1% BSA; details: both partners purified
[7] = biological target: T2, F*PfRON2sp1 (39 aa) [2021-2059], …; assay: fluorescence polarisation; anisotropy kinetics at 20°C; association: 10 nM labeled probe with 50, 100, 200 nM protein; dissociation: 10 nM preformed complex challenged with 2500 or 5000 nM unlabeled PfRON2sp1; global fit to a one-intermediate model; PBS pH 7.4, at least 0.1% BSA; details: both partners purified

PfRON2D3: thioredoxin fusion of PfRON2D3 (Asp2021 to Ser2059) produced in E. coli BL21 cells
Kd (PfAMA1 [1]): 20.3 ± 6.3 nM | Kd (ΔDII-PfAMA1): 92.6 ± 6.4 nM

TRX: thioredoxin, injected as a negative control in ITC
binding of TRX negative control (PfAMA1 [2]): no detectable binding

B1: PfAMA1 (DI-DII of Plasmodium falciparum Apical Membrane Antigen 1, 3D7, residues 104-438) (domain or fragment)
chain: NYMGNPWTEYMAKYDIEEVHGSGIRVDLGEDAEVAGTQYRLPSGKCPVFGKGIIIENSNTTFLTPVATGNQYLKDGGFAFPPTEPLMSPMTLDEMRHFYKDNKYVKNLDELTLCSRHAGNMIPDNDKNSNYKYPAVYDDKDKKCHILYIAAQENNGPRYCNKDESKRNSMFCFRPAKDISFQNYTYLSKNVVDNWEKVCPRKNLQNAKFGLWVDGNCEDIPHVNEFPAIDLFECNKLVFELSASDQPKQYEQHLTDYEKIKEGFKNKNASMIKSAFLPTGAFKADRYKSHGKGYNWGNYNTETQKCEIFNVKPTCLINNSSYIATTALSHPIEVE
notes: codon-optimized synthetic gene; also called native PfAMA1; PfAMA1 DI-DII construct
dH of step 1 (formation of the intermediate) [3]: -0.67 kcal/mol | dH (overall, summation of the transition states from the kinetic fit) [4]: -11.6 kcal/mol | complex half-life (calculated from the one-intermediate model) [5]: 9.07 min | complex half-life (experimental) [5]: 9.23 min | complex half-life (calculated from the one-intermediate model) [6]: 16 min | complex half-life (experimental) [6]: 15 min | complex half-life (calculated from the one-intermediate model) [7]: 28.8 min | complex half-life (experimental) [7]: 27.3 min
